Results from article PMC4197441, “Phosphoinositide 3-kinase p85beta regulates invadopodium formation” (Biology Open, 2014).

Biological target: T1, focal adhesion kinase (mouse (endogenous in NIH3T3), UniProt P34152 1-1052)
T1 construct: focal adhesion kinase (FAK), endogenous in NIH3T3 fibroblasts, immunoprecipitated with anti-FAK Ab (BD Bioscience); also called FAK; Ptk2; source: endogenous, NIH3T3 cell extract
Experiment: co-IP; NIH3T3 cell extracts (500 µg, TX-100 lysis buffer) immunoprecipitated with anti-FAK Ab, WB with anti-HA Ab; cells without serum 16 h, then 10% serum (in suspension), FN, or FN plus serum for 20 or 60 min
Conditions: partners not purified

T1 sequence (P34152 whole entry): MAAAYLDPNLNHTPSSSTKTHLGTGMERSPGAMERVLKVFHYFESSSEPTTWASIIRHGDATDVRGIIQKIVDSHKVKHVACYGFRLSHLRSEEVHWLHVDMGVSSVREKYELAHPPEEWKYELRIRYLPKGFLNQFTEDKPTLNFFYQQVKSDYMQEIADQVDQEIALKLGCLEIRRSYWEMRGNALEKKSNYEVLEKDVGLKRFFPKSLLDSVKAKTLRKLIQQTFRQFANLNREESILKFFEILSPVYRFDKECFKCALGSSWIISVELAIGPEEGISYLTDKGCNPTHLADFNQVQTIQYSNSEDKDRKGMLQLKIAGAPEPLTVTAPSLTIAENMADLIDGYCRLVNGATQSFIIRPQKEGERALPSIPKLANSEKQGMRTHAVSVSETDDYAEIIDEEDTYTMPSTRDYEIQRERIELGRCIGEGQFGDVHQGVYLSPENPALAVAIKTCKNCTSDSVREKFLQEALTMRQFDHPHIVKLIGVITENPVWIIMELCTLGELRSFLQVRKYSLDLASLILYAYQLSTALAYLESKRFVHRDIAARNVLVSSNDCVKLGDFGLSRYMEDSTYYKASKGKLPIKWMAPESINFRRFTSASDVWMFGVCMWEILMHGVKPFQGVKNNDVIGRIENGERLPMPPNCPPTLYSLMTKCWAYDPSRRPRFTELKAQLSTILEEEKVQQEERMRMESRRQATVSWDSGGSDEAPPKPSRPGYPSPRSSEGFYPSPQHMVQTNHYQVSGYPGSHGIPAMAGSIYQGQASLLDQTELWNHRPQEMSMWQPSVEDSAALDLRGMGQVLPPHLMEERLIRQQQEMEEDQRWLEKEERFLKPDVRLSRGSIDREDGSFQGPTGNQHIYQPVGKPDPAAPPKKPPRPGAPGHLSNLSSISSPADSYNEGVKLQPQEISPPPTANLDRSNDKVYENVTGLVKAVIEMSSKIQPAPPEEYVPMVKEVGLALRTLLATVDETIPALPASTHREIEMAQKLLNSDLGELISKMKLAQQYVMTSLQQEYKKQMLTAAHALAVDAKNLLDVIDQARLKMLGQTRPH

B1: recombinant HA-tagged p85β (regulatory subunit of phosphoinositide 3-kinase) (natural protein)
chain: not shown
notes: p85β regulatory subunit of PI3K, murine cDNA (from pT7/T3-U19) subcloned into pSG5; the p85β ATG codon was replaced with a proline residue and the ATG of the HA tag kept; The only change is the first methionine to proline at the junction with the N-terminal HA tag; also called rHAp85β; HA-p85β; source: NIH3T3, transfected (pSG5), in cell extract; not shown: HA, N-terminal, kept
fold amount co-precipitated with FAK relative to rHAp85α: 5 fold
